Source: patent US20200297764A1 (Memorial Sloan Kettering, published 2020)

Legend:
CD3 on activated T cells = biological target: T1, CD3 on activated T cells (human, UniProt P07766 23-207); test: flow cytometry on activated T cells, 4 C, secondary antibody, MFI
T1 construct: whole, on cells; CD3 complex on cells; the rest of the complex is not described; also called CD3 receptor
Description: FIG. 13 depicts binding properties of an exemplary CD33-CD3 IgG-scFv (BsAb) to CD33 and CD3. (A) MOLM13 cells were reacted for 30 min at 4 C.° using decreasing doses of hM195 (anti-CD33 IgG), the heterodimeric BsAb, and an exemplary CD33-CD3 IgG-scFv. Cells were washed and immunostained with a fluorochrome-conjugated secondary antibody and mean fluorescence intensity (MFI) assayed by flow cytometry. (B) MOLM13 cells were reacted for 30 min, 4 h or 24 h at 37 C.° or 4 C.° with 1 μg/ml of hM195 (anti-CD33 IgG), the heterodimeric IgG BsAb, and exemplary CD33-CD3 IgG-scFv. Cells were washed and immunostained with a fluorochrome-conjugated secondary antibody at 4 C.°. After washing the unbound antibody, MFI was analyzed by flow cytometry. (C) Activated T cells were reacted for 30 min at 4 C.° with decreasing doses of hOKT3 (anti-CD3 IgG), the heterodimeric BsAb, and exemplary CD33-CD3 IgG-scFv. Cells were washed and immunostained with a fluorochrome-conjugated secondary antibody and MFI analyzed measured by flow cytometry.

[1] = biological target: CD33 on human CD33(+) cells (human, UniProt P20138 18-364); test: cell-based or functional assay
Chain of CD33 on human CD33(+) cells (P20138 18-364): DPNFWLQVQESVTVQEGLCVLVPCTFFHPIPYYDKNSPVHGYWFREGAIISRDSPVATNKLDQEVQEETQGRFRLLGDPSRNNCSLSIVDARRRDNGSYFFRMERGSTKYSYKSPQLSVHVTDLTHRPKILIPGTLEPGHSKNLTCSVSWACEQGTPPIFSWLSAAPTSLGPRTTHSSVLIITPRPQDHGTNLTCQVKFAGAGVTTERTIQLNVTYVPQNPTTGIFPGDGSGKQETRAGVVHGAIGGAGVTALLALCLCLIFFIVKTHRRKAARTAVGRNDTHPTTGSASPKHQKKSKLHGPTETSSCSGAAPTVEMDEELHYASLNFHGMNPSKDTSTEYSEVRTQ

T1 sequence (P07766 23-207): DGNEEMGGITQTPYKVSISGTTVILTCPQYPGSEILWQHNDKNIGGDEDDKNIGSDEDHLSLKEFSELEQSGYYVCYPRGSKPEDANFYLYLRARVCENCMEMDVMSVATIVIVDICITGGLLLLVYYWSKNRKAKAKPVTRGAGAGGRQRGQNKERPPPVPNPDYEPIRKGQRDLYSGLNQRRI

- fold weaker binding (against heterodimer) (CD3 on activated T cells): 2.5 fold
- fold weaker binding (against huOKT3) (CD3 on activated T cells): 27 fold
- TDCC potency, fold against the heterodimer, 4 h chromium release assay, THP1 and MOLM13 cells [1]: 12 fold
B1: CD33-BsAb (BiClone 133), exemplary CD33-CD3 IgG-scFv bispecific antibody agent (bispecific antibody)
heavy: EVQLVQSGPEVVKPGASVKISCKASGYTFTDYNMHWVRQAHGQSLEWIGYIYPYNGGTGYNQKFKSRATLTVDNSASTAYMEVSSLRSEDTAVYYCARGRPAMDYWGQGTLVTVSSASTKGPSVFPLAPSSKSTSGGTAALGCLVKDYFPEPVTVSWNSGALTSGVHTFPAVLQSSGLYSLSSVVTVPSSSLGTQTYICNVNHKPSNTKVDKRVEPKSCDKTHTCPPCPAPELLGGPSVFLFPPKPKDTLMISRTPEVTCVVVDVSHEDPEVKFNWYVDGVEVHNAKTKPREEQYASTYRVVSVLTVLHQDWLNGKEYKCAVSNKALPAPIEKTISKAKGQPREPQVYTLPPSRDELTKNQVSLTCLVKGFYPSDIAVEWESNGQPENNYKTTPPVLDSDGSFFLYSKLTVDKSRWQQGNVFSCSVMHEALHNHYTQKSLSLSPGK
light: EIVLTQSPATLSVSLGERATISCRASESVDNYGISFMNWFQQKPGQPPRLLIYAASNQGSGVPARFSGSGPGTDFTLTISSMEPEDFAMYFCQQSKEVPWTFGGGTKLEIKRTVAAPSVFIFPPSDEQLKSGTASVVCLLNNFYPREAKVQWKVDNALQSGNSQESVTEQDSKDSTYSLSSTLTLSKADYEKHKVYACEVTHQGLSSPVTKSFNRGECTSGGGGSGGGGSGGGGSQVQLVQSGGGVVQPGRSLRLSCKASGYTFTRYTMHWVRQAPGKCLEWIGYINPSRGYTNYNQKFKDRFTISRDNSKNTAFLQMDSLRPEDTGVYFCARYYDDHYSLDYWGQGTPVTVSSGGGGSGGGGSGGGGSGGGGSGGGGSGGGGSDIQMTQSPSSLSASVGDRVTITCSASSSVSYMNWYQQTPGKAPKRWIYDTSKLASGVPSRFSGSGSGTDYTFTISSLQPEDIATYYCQQWSSNPFTFGCGTKLQITR
notes: IgG-scFv format, tetravalent (2+2): two arms to CD33 and two to CD3; also called CD33-specific BsAb; anti-CD33 BsAb
- EC50 of T cell cytotoxicity (lysis of MOLM13 cells) [1]: 2.4 pM
- EC50 of T cell cytotoxicity, 4-hour 51Cr release assay, HL60 AML cells [1]: 1.1 pM
